Test results: the supplement of paper PMC5998384

Legend:
[1] = tested on: HeLa Kyoto; assay: solubility in G1/S (NP-40 vs SDS abundance) (log2 ratio); higher = more soluble; conditions: cell cycle stage: G1/S
[2] = tested on: HeLa Kyoto; assay: solubility change mitosis vs G1/S (difference of NP-40 vs SDS log2 ratios) (log2 ratio difference); higher = more soluble in mitosis
[3] = tested on: HeLa Kyoto; assay: melting temperature (median over replicates), in situ; higher = more thermally stable
[4] = tested on: HeLa Kyoto; assay: thermal stability score vs G1/S (z-score of summed log2 fold changes over temperatures); higher = more thermally stable than in G1/S
[5] = cell cycle stage: early G1 (4.5 h after nocodazole release)
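For melting temperature (median over replicates), in situ in this document: HeLa Kyoto cells synchronized by double thymidine or nocodazole block, proteins quantified by TMT10plex mass spectrometry, three independent biological replicates.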
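For solubility change mitosis vs G1/S (difference of NP-40 vs SDS log2 ratios) in this document: synchronized HeLa Kyoto cells (double thymidine block for G1/S, nocodazole release for mitosis), protein amounts in NP-40 versus SDS lysates quantified by mass spectrometry, three biological replicates.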
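For solubility in G1/S (NP-40 vs SDS abundance) in this document: HeLa Kyoto cells arrested at G1/S by double thymidine block, proteins quantified by TMT10plex mass spectrometry in mild NP-40 versus SDS extracts, three biological replicates.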
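For thermal stability score vs G1/S (z-score of summed log2 fold changes over temperatures) in this document: synchronized HeLa Kyoto cells, proteins quantified by TMT10plex mass spectrometry, three biological replicates, mitosis taken 0.5 h after nocodazole release, G1/S directly after double thymidine block.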

Sequence | solubility in G1/S (log2) [1] | solubility change mitosis (log2) [2] | melting temperature ([3]; cell cycle stage: G1/S) [°C] | melting temperature ([3]; cell cycle stage: mitosis) [°C] | thermal stability score [4, 5] | thermal stability score ([4]; cell cycle stage: mitosis)
MADAAPQLGKRKRELDVEEAHAASTEEKEAGVGNGTCAPVRLPFSGFRLQKVLRESARDKIIFLHGKVNEASGDGDGEDAVVILEKTPFQVEQVAQLLTGSPELQLQFSNDIYSTYHLFPPRQLNDVKTTVVYPATEKHLQKYLRQDLRLIRETGDDYRNITLPHLESQSLSIQWVYNILDKKAEADRIVFENPDPSDGFVLIPDLKWNQQQLDDLYLIAICHRRGIRSLRDLTPEHLPLLRNILHQGQEAILQRYRMKGDHLRVYLHYLPSYYHLHVHFTALGFEAPGSGVERAHLLAEVIENLECDPRHYQQRTLTFALRADDPLLKLLQEAQQS [DCPS] | 0.263 | -0.0249 | 56.3 | 55.7 | -0.562 | -3.36
MSFSEMNRRTLAFRGGGLVTASGGGSTNNNAGGEASAWPPQPQPRQPPPPAPPALQPPNGRGADEEVELEGLEPQDLEASAGPAAGAAEEAKELLLPQDAGGPTSLGGGAGGPLLAERNRRTLAFRGGGGGGLGNNGSSRGRPETSVWPLRHFNGRGPATVDLELDALEGKELMQDGASLSDSTEDEEEGASLGDGSGAEGGSCSSSRRSGGDGGDEVEGSGVGAGEGETVQHFPLARPKSLMQKLQCSFQTSWLKDFPWLRYSKDTGLMSCGWCQKTPADGGSVDLPPVGHDELSRGTRNYKKTLLLRHHVSTEHKLHEANAQESEIPSEEGYCDFNSRPNENSYCYQLLRQLNEQRKKGILCDVSIVVSGKIFKAHKNILVAGSRFFKTLYCFSNKESPNQNNTTHLDIAAVQGFSVILDFLYSGNLVLTSQNAIEVMTVASYLQMSEVVQTCRNFIKDALNISIKSEAPESVVVDYNNRKPVNRDGLSSSRDQKIASFWATRNLTNLASNVKIENDGCNVDEGQIENYQMNDSSWVQDGSPEMAENESEGQTKVFIWNNMGSQGIQETGKTRRKNQTTKRFIYNIPPNNETNLEDCSVMQPPVAYPEENTLLIKEEPDLDGALLSGPDGDRNVNANLLAEAGTSQDGGDAGTSHDFKYGLMPGPSNDFKYGLIPGTSNDFKYGLIPGASNDFKYGLLPESWPKQETWENGESSLIMNKLKCPHCSYVAKYRRTLKRHLLIHTGVRSFSCDICGKLFTRREHVKRHSLVHKKDKKYKCMVCKKIFMLAASVGIRHGSRRYGVCVDCADKSQPGGQEGVDQGQDTEFPRDEEYEENEVGEADEELVDDGEDQNDPSRWDESGEVCMSLDD [ZBTB10] | -0.114 | -0.0451 |  | 53.4 | -0.229 | -0.231
MNHLNVLAKALYDNVAESPDELSFRKGDIMTVLEQDTQGLDGWWLCSLHGRQGIVPGNRLKILVGMYDKKPAGPGPGPPATPAQPQPGLHAPAPPASQYTPMLPNTYQPQPDSVYLVPTPSKAQQGLYQVPGPSPQFQSPPAKQTSTFSKQTPHHPFPSPATDLYQVPPGPGGPAQDIYQVPPSAGMGHDIYQVPPSMDTRSWEGTKPPAKVVVPTRVGQGYVYEAAQPEQDEYDIPRHLLAPGPQDIYDVPPVRGLLPSQYGQEVYDTPPMAVKGPNGRDPLLEVYDVPPSVEKGLPPSNHHAVYDVPPSVSKDVPDGPLLREETYDVPPAFAKAKPFDPARTPLVLAAPPPDSPPAEDVYDVPPPAPDLYDVPPGLRRPGPGTLYDVPRERVLPPEVADGGVVDSGVYAVPPPAEREAPAEGKRLSASSTGSTRSSQSASSLEVAGPGREPLELEVAVEALARLQQGVSATVAHLLDLAGSAGATGSWRSPSEPQEPLVQDLQAAVAAVQSAVHELLEFARSAVGNAAHTSDRALHAKLSRQLQKMEDVHQTLVAHGQALDAGRGGSGATLEDLDRLVACSRAVPEDAKQLASFLHGNASLLFRRTKATAPGPEGGGTLHPNPTDKTSSIQSRPLPSPPKFTSQDSPDGQYENSEGGWMEDYDYVHLQGKEEFEKTQKELLEKGSITRQGKSQLELQQLKQFERLEQEVSRPIDHDLANWTPAQPLAPGRTGGLGPSDRQLLLFYLEQCEANLTTLTNAVDAFFTAVATNQPPKIFVAHSKFVILSAHKLVFIGDTLSRQAKAADVRSQVTHYSNLLCDLLRGIVATTKAAALQYPSPSAAQDMVERVKELGHSTQQFRRVLGQLAAA [BCAR1] | 0.471 | 0.0584 | 49.1 | 49.4 | 0.46 | 2.67
MERSGPSEVTGSDASGPDPQLAVTMGFTGFGKKARTFDLEAMFEQTRRTAVERSRKTLEAREKEEEMNREKELRRQNEDIEPTSSRSNVVRDCSKSSSRDTSSSESEQSSDSSDDELIGPPLPPKMVGKPVNFMEEDILGPLPPPLNEEEEEAEEEEEEEEEEENPVHKIPDSHEITLKHGTKTVSALGLDPSGARLVTGGYDYDVKFWDFAGMDASFKAFRSLQPCECHQIKSLQYSNTGDMILVVSGSSQAKVIDRDGFEVMECIKGDQYIVDMANTKGHTAMLHTGSWHPKIKGEFMTCSNDATVRTWEVENPKKQKSVFKPRTMQGKKVIPTTCTYSRDGNLIAAACQNGSIQIWDRNLTVHPKFHYKQAHDSGTDTSCVTFSYDGNVLASRGGDDSLKLWDIRQFNKPLFSASGLPTMFPMTDCCFSPDDKLIVTGTSIQRGCGSGKLVFFERRTFQRVYEIDITDASVVRCLWHPKLNQIMVGTGNGLAKVYYDPNKSQRGAKLCVVKTQRKAKQAETLTQDYIITPHALPMFREPRQRSTRKQLEKDRLDPLKSHKPEPPVAGPGRGGRVGTHGGTLSSYIVKNIALDKTDDSNPREAILRHAKAAEDSPYWVSPAYSKTQPKTMFAQVESDDEEAKNEPEWKKRKI [WDR70] | -0.0649 | -0.0897 | 53.3 | 53.2 | -0.26 | -0.746
MAEGSGEVVAVSATGAANGLNNGAGGTSATTCNPLSRKLHKILETRLDNDKEMLEALKALSTFFVENSLRTRRNLRGDIERKSLAINEEFVSIFKEVKEELESISEDVQAMSNCCQDMTSRLQAAKEQTQDLIVKTTKLQSESQKLEIRAQVADAFLSKFQLTSDEMSLLRGTREGPITEDFFKALGRVKQIHNDVKVLLRTNQQTAGLEIMEQMALLQETAYERLYRWAQSECRTLTQESCDVSPVLTQAMEALQDRPVLYKYTLDEFGTARRSTVVRGFIDALTRGGPGGTPRPIEMHSHDPLRYVGDMLAWLHQATASEKEHLEALLKHVTTQGVEENIQEVVGHITEGVCRPLKVRIEQVIVAEPGAVLLYKISNLLKFYHHTISGIVGNSATALLTTIEEMHLLSKKIFFNSLSLHASKLMDKVELPPPDLGPSSALNQTLMLLREVLASHDSSVVPLDARQADFVQVLSCVLDPLLQMCTVSASNLGTADMATFMVNSLYMMKTTLALFEFTDRRLEMLQFQIEAHLDTLINEQASYVLTRVGLSYIYNTVQQHKPEQGSLANMPNLDSVTLKAAMVQFDRYLSAPDNLLIPQLNFLLSATVKEQIVKQSTELVCRAYGEVYAAVMNPINEYKDPENILHRSPQQVQTLLS [COG6] | 0.289 | -0.0596 | 48.6 | 49.3 | 0.0299 | 0.655
MSAFSEAALEKKLSELSNSQQSVQTLSLWLIHHRKHSRPIVTVWERELRKAKPNRKLTFLYLANDVIQNSKRKGPEFTKDFAPVIVEAFKHVSSETDESCKKHLGRVLSIWEERSVYENDVLEQLKQALYGDKKPRKRTYEQIKVDENENCSSLGSPSEPPQTLDLVRALQDLENAASGDAAVHQRIASLPVEVQEVSLLDKITDKESGERLSKMVEDACMLLADYNGRLAAEIDDRKQLTRMLADFLRCQKEALAEKEHKLEEYKRKLARVSLVRKELRSRIQSLPDLSRLPNVTGSHMHLPFAGDIYSED [RPRD1A] | 0.66 | -0.0443 | 48 | 49.5 | 1.27 | 1.64
MICTFLRAVQYTEKLHRSSAKRLLLPYIVLNKACLKTEPSLRCGLQYQKKTLRPRCILGVTQKTIWTQGPSPRKAKEDGSKQVSVHRSQRGGTAVPTSQKVKEAGRDFTYLIVVLFGISITGGLFYTIFKELFSSSSPSKIYGRALEKCRSHPEVIGVFGESVKGYGEVTRRGRRQHVRFTEYVKDGLKHTCVKFYIEGSEPGKQGTVYAQVKENPGSGEYDFRYIFVEIESYPRRTIIIEDNRSQDD [TIMM21] | -0.209 | 0.0282 | 52.1 | 51.6 | 0.315 | -0.0739
MEELDGEPTVTLIPGVNSKKNQMYFDWGPGEMLVCETSFNKKEKSEMVPSCPFIYIIRKDVDVYSQILRKLFNESHGIFLGLQRIDEELTGKSRKSQLVRVSKNYRSVIRACMEEMHQVAIAAKDPANGRQFSSQVSILSAMELIWNLCEILFIEVAPAGPLLLHLLDWVRLHVCEVDSLSADVLGSENPSKHDSFWNLVTILVLQGRLDEARQMLSKEADASPASAGICRIMGDLMRTMPILSPGNTQTLTELELKWQHWHEECERYLQDSTFATSPHLESLLKIMLGDEAALLEQKELLSNWYHFLVTRLLYSNPTVKPIDLHYYAQSSLDLFLGGESSPEPLDNILLAAFEFDIHQVIKECSIALSNWWFVAHLTDLLDHCKLLQSHNLYFGSNMREFLLLEYASGLFAHPSLWQLGVDYFDYCPELGRVSLELHIERIPLNTEQKALKVLRICEQRQMTEQVRSICKILAMKAVRNNRLGSALSWSIRAKDAAFATLVSDRFLRDYCERGCFSDLDLIDNLGPAMMLSDRLTFLGKYREFHRMYGEKRFADAASLLLSLMTSRIAPRSFWMTLLTDALPLLEQKQVIFSAEQTYELMRCLEDLTSRRPVHGESDTEQLQDDDIETTKVEMLRLSLARNLARAIIREGSLEGS [NUP85] | -0.6 | 0.246 | 52.3 | 50.8 | -2.34 | -4.7
MAKAYDHLFKLLLIGDSGVGKTCLIIRFAEDNFNNTYISTIGIDFKIRTVDIEGKKIKLQVWDTAGQERFKTITTAYYRGAMGIILVYDITDEKSFENIQNWMKSIKENASAGVERLLLGNKCDMEAKRKVQKEQADKLAREHGIRFFETSAKSSMNVDEAFSSLARDILLKSGGRRSGNGNKPPSTDLKTCDKKNTNKCSLG [RAB13] | -0.134 | -0.198 | 53.5 | 53 | -0.483 | -1.07
MARAGPAWLLLAIWVVLPSWLSSAKVSSLIERISDPKDLKKLLRTRNNVLVLYSKSEVAAENHLRLLSTVAQAVKGQGTICWVDCGDAESRKLCKKMKVDLSPKDKKVELFHYQDGAFHTEYNRAVTFKSIVAFLKDPKGPPLWEEDPGAKDVVHLDSEKDFRRLLKKEEKPLLIMFYAPWCSMCKRMMPHFQKAATQLRGHAVLAGMNVYSSEFENIKEEYSVRGFPTICYFEKGRFLFQYDNYGSTAEDIVEWLKNPQPPQPQVPETPWADEGGSVYHLTDEDFDQFVKEHSSVLVMFHAPWCGHCKKMKPEFEKAAEALHGEADSSGVLAAVDATVNKALAERFHISEFPTLKYFKNGEKYAVPVLRTKKKFLEWMQNPEAPPPPEPTWEEQQTSVLHLVGDNFRETLKKKKHTLVMFYAPWCPHCKKVIPHFTATADAFKDDRKIACAAVDCVKDKNQDLCQQEAVKGYPTFHYYHYGKFAEKYDSDRTELGFTNYIRALREGDHERLGKKKEEL [PDIA5] | -0.136 | -0.0327 | 53.8 | 54.5 | 2.7 | 2.84
